Experiments:
[1] = test system: CC(C)[C@H](NCC1(O)OC[C@@H](O)[C@@H](O)[C@@H]1O)C(=O)N[C@@H](Cc1c[nH]cn1)C(=O)O; experiment: purified protein, by the assay type; settings: other: IE353, F-VH 0.18-1.75 mM, 37° C., MES pH 6.5, peroxidase-coupled, Lineweaver-Burk plot
Procedure: The reaction was conducted at 37° C. for 5 minutes, and then a change in the absorbance at 500 nm (ΔODtest/min) was measured. Meanwhile, a blank test was conducted by adding, instead of the enzyme solution, 0.1 ml of enzyme diluent to the activity measuring reagent, and then measuring a change in the absorbance at 500 nm (ΔODblank/min) in the same way. The enzyme activity was calculated from the changes in absorbance on the basis of the following formula, and is described by unit (U) where an amount of enzyme that oxidizes 1 micromole of substrate in one minute under the above-described condition is 1 unit (U). —Formula— Activity value(U/ml)={ΔOD/min(ΔODtest−ΔODblank)×3.1(ml)×dilution magnification}/{13×1.0(cm)×0.1(ml)}. In the above formula, • “3.1 (ml)” is the whole liquid quantity; • “13” is a millimolar absorbance index; • “1.0 (cm)” is an optical length of a cell; and • “0.1 (ml)” is the enzyme sample quantity. […]

[2] = substrate: CC(C)[C@H](NCC1(O)OC[C@@H](O)[C@@H](O)[C@@H]1O)C(=O)N[C@@H](Cc1c[nH]cn1)C(=O)O; experiment: Km value to F-VH (Lineweaver-Burk plot); assay type: biochemical, Coniochaeta sp.; settings: other: FPOX-CE, F-VH 0.18-1.75 mM, 37° C., MES pH 6.5, peroxidase-coupled
Procedure: (§1) The chemical compounds used in the present examples were purchased from NACALAI TESQUE, INC. unless otherwise particularly stated.
(§2) The following describes an activity measurement method of the following examples 1 through 3.
(§3) An enzyme activity to a substrate was measured by an increase in absorbance of a pigment as a result of peroxidase reaction involving hydrogen peroxide generated by enzyme reaction. First, 3 ml of activity measuring reagent was heated at 37° C. for 5 minutes, and then 0.1 ml of enzyme solution diluted in advance by an enzyme diluent (a 50 mM potassium phosphate buffer (pH 7.5)) was added to the activity measuring reagent, thereby starting the reaction.
(§4) The reaction was conducted at 37° C. for 5 minutes, and then a change in the absorbance at 500 nm (ΔODtest/min) was measured. Meanwhile, a blank test was conducted by adding, instead of the enzyme solution, 0.1 ml of enzyme diluent to the activity measuring reagent, and then measuring a change in the absorbance at 500 nm (ΔODblank/min) in the same way. […] In the above formula, • “3.1 (ml)” is the whole liquid quantity; • “13” is a millimolar absorbance index; • “1.0 (cm)” is an optical length of a cell; and • “0.1 (ml)” is the enzyme sample quantity.
(§5) The Km value to F-VH was worked out as follows. […] Subsequently, activities in the samples were measured by the above-described activity measurement method. […]

[3] = substrate: CC(C)[C@H](NCC1(O)OC[C@@H](O)[C@@H](O)[C@@H]1O)C(=O)N[C@@H](Cc1c[nH]cn1)C(=O)O; experiment: Km value to F-VH (Lineweaver-Burk plot); assay type: biochemical, E. terrenum; settings: other: FPOX-EE, F-VH 0.18-1.75 mM, 37° C., MES pH 6.5, peroxidase-coupled
Procedure: as §1, §2, §3, §4, §5

Phaeosphaeria nodorum fructosyl valyl histidine oxidase IE353, wild type, SEQ ID NO: 1 (Parastagonospora nodorum SN15)
Km [1]: 500 µM

B1: FPOX-CE (Coniochaeta sp.), conventional enzyme manufactured by KIKKOMAM Corporation (Coniochaeta sp. NISL 9330) (protein)
chain: MTSNRADTRVIVVGGGGTIGSSTALHLVRSGYAPANITVLDTFEIPSAQSAGHDLNKIMGIRLRNKVDLQMSLEARQMWKEDELFQPFFHNTGRMDCEHTPEGIEDLKKQYQALHDAGAGLEKTHAWLDNEDEILSKMPLLQRDQIQGWKAIWSQDGGWLAAAKAINAIGQFLKERGVKFGFGGAGSFKQPLFDDEGTTCIGVETADGTKYYADKVVLAAGAWSPTLVDLEDQCCSKAWVYAHIQLTPEEAAEYKGVPVVYNGEFGFFFEPNEFGVIKVCDEFPGFSRFKEHQPYGAPSPKHISVPRSHAKHPTDTYPDASEVSIKKAIATFLPRFQDKELFNRALCWCTDTADAALLMCEHPKWKNFILATGDSGHSFKILPNVGKHVVELIEGRLPEEMAYQWRWRPGGDALKSRRAAPPKDLADMPGWKHDPKL
Km [2]: 1000 µM

B2: FPOX-EE (E. terrenum), conventional enzyme manufactured by KIKKOMAM Corporation (Penicillium terrenum) (protein)
chain: MAHSRASTKVVVVGGGGTIGSSTALHLIRSGYTPSNITVLDVYKTPSLQSAGHDLNKIMGIRLRNGPDLQLSLESLDMWQNDELFKPFFHQVGMIDCSSSKEGIENLRRKYQTLLDAGIGLEKTNVWLESEDEILAKAPNFTREQVKGWKGLFCTDGGWLAAAKAINAIGIFLQDKGVKFGFGGAGTFQQPLFAADGKTCIGLETTDGTKYFADKVVLAAGAWSPTLVDLEDQCVSKAWVFAHIQLTPKEADAYKNVPVVYDGEYGFFFEPNEYGVIKVCDEFPGFSRFKLHQPYGAASPKMISVPRSHAKHPTDTYPDASEVTIRKAIARFLPEFKDKELFNRTMCWCTDTADANLLICEHPKWKNFILATGDSGHSFKLLPNIGKHVVELLEGSLSQEMAGAWRWRPGGDALRSRRGAPAKDLAEMPGWKHDAHL
Km [3]: 1000 µM

— patent publication US8993255B2, “Protein having fructosyl valyl histidine oxidase activity, modified protein, and use of the protein or the modified protein” (Toyo Boseki Kabushiki Kaisha, priority 2008, dated 2015)
